{"source": "paper PMC6718452", "biological_target": "FITC-labeled amyloid-β (Aβ), aggregated into amyloid-derived diffusible ligands (ADDLs)", "assay": "SEC; FITC-labeled Aβ aggregated by the Freir protocol (ADDLs); solvent PBS", "data": [{"substance": "FITC-labeled amyloid-β (Aβ), aggregated into amyloid-derived diffusible ligands (ADDLs) (peptide)", "values": [{"measurement": "stoichiometry N", "result": 2}]}]}
